Consider twelve molecules from patent US20260258115A1 (MAPP BIOPHARMACEUTICAL, published 2026).

Sequences and labels used below:
B1: ADI-41256 (antibody, V domains shown)
VH: QVQLVQSGAEVKSPGSSATVSCKASGGTFGSYGISWVRQAPGQGLEWIGAIMPMFGTTNYAQKFQGRVTMTADESTSTVYMDVSSLRPDDTAVYYCVRDVFYDILTGYYDADYYHHYMDVWGKGTTVTVSS
VL: DIVMTQSPLSLPVTLGQPASISCRSGQSLVHSDGNTYLNWFQQRPGQSPRRLIYKVSNRGSGVPDRFSGSGSGTDFTLKISRVEAEDVGVYFCMQGTHWPRTFGQGTKVDIK
notes: also called Ab 578; Antibody Number 578
B2: ADI-41259 (antibody, V domains shown)
VH: QVQLVESGGRLVKPGGSLRLSCAASGFTFSDFYMSWIRQAPGKGLEWVSYISSSGDDPNYADSVKGRFTISRDNSKNSLYLQMNSLRAEDTAVYYCARDEVGWNNLDYYFGMDVWGQGTTVTVSS
VL: DIVMTQSPLSLPVTLGQPASISCRSSQSLVHSDGNTYLSWFHQRPGQSPRRLIYKVSNRDSGVPNRFSGGGSGTDFTLKISRVEAEDVGFFYCMQGTHWQKTFGQGTKVEIK
B3: ADI-41203 (antibody, V domains shown)
VH: QVQLVQSGAEVRKPGESLKISCKASGYRFTNYWIGWVRQMPGKGLEWMGVIYPGDSDTRYSPSFQGQVTMSADKSTNTAYLQWSSLKASDTAIYYCVSLYSDYDYGALDYWGQGTLVTVSS
VL: EIVMTQSPATLSVSPGERATLSCRASENVGRNLAWYQQKPGQAPRLLIYGASIRATGILARFSGSGSGTEYTLTISSLQSEDFAVYYCQQYHDWPSFTFGPGTKVDIK
B4: ADI-41208 (antibody, V domains shown)
VH: QVQLVESGGDLVKPGGSLRLSCAASGFTLSGHYMSWIRQPPGKGLEWVSSISGGSTYTNYADSVKGRFTISRDNAENSLYLQMNSLRAEDTAVYYCARLAYSDYGPFYFDLWGRGTLVTVSS
VL: QSVLTQPPSVSGAPGQRVTISCTGSSSNIGAGYDVHWYQQLTGTAPKLLIFDNNNRPSGVPDRFSGSKSGTSASLAITGLQAEDEADYYCQSYDSRLSAPYVFGTGTKLTVL
B5: ADI-41302 (antibody, V domains shown)
VH: QVQLVESGGGVVQPGRSLRLSCAASGFTFSSYAMQWVRQAPGKGLEWVAVMTNDGDDKYYADSVRGRFTISRDNSKNTLYLQMNNLRPEDTAVYYCARDLFEWWELLGYCYAMDVWGQGTTVTVSS
VL: QSVLTQPPSASGSPGQSVTISCTGTSSDVGAYNYVSWYQQHPGKAPKLIIYEVYKRPSGVPDRFFGSKSGNTASLTVSGLQAEDEADYYCSSYAGSNTLGVFGGGTKVTVL
B6: ADI-41191 (antibody, V domains shown)
VH: QVQLVQSGAEVKRPGASVKVSCKASGYIFSHYGISWVRQAPGQGLEWMAWISAYNGNTNYAQKLQGRVTVTTDTSTSTAYMELRSLRSDDTAVYYCAREPPSLSAAATLDYWGQGTLVTVSS
VL: EIVMTQSPLSLPVTLGQPASISCRSNQSLVYSDGNIYLSWFQQRPGQSPRRLIYKVSNRDSGVPDRFSGSGSGTDFTLKISRVEAEDVAVYYCMQVTHWPHEFGQGTKLEIK
B7: ADI-41274 (antibody, V domains shown)
VH: EVQLVESGGGLVKPGGSLRLSCAASGFSFSSYAMNWVRQAPGKGLQWVSSISAGSSYIDYADSVKGRFTISRDNAENSLFLQMNSLRVEDTAVYYCARVGSYTHGYEFDYWGQGTLVTVSS
VL: QPVLTQPPSVSGAPGQRVTISCTGSNSNIGAGYDVHWYQQLPGTAPKLLIYASTIRPSGVPDRFSGSKSGTSASLAITGLQAEDEADYYCQSYDRNLSVVFGGGTKVTVL
notes: also called Ab 592; Antibody Number 592
B8: ADI-41457 (antibody, V domains shown)
VH: EVQLVESGGGLVRPGGSLRVSCAASGFTFIRYDMHWVRQAPGKGLEWVSGIGTAGDTYYAASVQGRFTISRENAKNSLYLQMSNLRPGDTAVYYCAGSMAATGIDQWGQGTLVTVSS
VL: EIVMTQSPLTLPVTPGEPASISCRSSQSLLHSNGFTYLDWFLQKPGQSPQLLIFLGSNRASGVPDRFSGSGSGTDFTLKISRVEAEDVGIYYCMQALQTPYTFGQGTKVEIK
notes: also called Ab 741; Antibody Number 741
B9: ADI-41489 (antibody, V domains shown)
VH: EVQLVESGGGVVQPGRSLRLSCAASGFNFHNYAFHWVRQAPGKGLDWVAVTSYDGSSAFYADSVKGRFTISRDNSKKILYLQMTSLRAEDTALYYCARGSSSWSGDYFDYWGQGILVTVSS
VL: DIVMTQSPVTLSVSPGERATLSCRASQSVGSNLAWYQQKHGQTPRLLIYDASTRATSIPARFSGSGSGTEFTLTISSLQSEDFAVYYCQQYNKWPSYTFGQGTKVEIK
notes: also called Ab 770; Antibody Number 770
B10: ADI-41491 (antibody, V domains shown)
VH: EVQLLESGGGLVQPGGSLRLSCAASGFTFSSYSMNWVRQAPGKGLEWVSYMSSDRSAIYYSDSVKDRFTISRDNAKNSLYLQMHSLRAEDTAVYYCARRYCSSTSCYRGLGYYYGMDVWGQGTTVTVSS
VL: SYELTQPPSVSVAPGQTARITCGGSNIGNKDVHWYQQKPGQAPVLVVYDDSDRPSGIPERFAGSNSGNTATLTISRVEAGDEADYYCQVWHSAGDHVVFGGGTKLTVL
B11: ADI-41501 (antibody, V domains shown)
VH: QVQLVQSGAEVKKPGSSVKVSCKASGGIFSDFAISWVRQAPGQGLEWMGGIITIIGTPEYAQKFQGRVRITADESTTTVFMELSRLTSEDTAVYYCARDSRYGSGWYWDHWGQGTLVTVSS
VL: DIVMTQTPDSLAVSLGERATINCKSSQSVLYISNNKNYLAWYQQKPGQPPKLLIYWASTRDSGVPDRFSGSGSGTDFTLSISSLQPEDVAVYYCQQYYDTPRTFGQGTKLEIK
notes: also called Ab 780; Antibody Number 780
B12: ADI-41476 (antibody, V domains shown)
VH: EVQLLESGGGLVQPGGSLRLSCATSGFRFTRYWMHWVRQAPGKGLEWVARINFDGTTTNYADSVKGRFTVSRDNAKNTLYLQINSLRAEDTAVYFCARDQTFLEWLPFESWGQGTLVTVSS
VL: QTVVTQEPSFSVSPGGTVTLTCGLTSGSVSTSYYPSWYQQTPGQAPRTLIYNTKTRFSGVPDRFSGSILGNKAALTITGAQADDESDYYCVLYMSGGMVFGGGTKLTVL

The first assay has as its target RSV postfusion F (postF), F ΔFP trimer, subtype A (Respiratory Syncytial Virus, subtype A, UniProt P03420 26-513). Put plainly: BLI, IgG (Table 9A). Background: Biolayer interferometry detects binding as a change in optical thickness at a sensor tip.
In the case of B1, the binding result was “no binding”.

As to B2, the binding result was “no binding”.

Turning to B3, the binding result is reported as “no binding”.

Regarding B4, the binding result was “no binding”.

Regarding B5, the binding result is on record as “no binding”.

As to B6, the binding result is “no binding”.

Consider B7, for which the binding result is “no binding”.

Another assay concerns the target RSV F on RSV-A2 virus (Respiratory Syncytial Virus (RSV-A2), UniProt P03420 26-574). Put plainly: cell-based or functional assay.
On to B8, for which the “Neutralization IC50 (RSV subtype A)” value is over 25 mg/L.

Take B9: the “Neutralization IC50 (RSV subtype A)” value is over 25 mg/L.

On to B10, for which the “Neutralization IC50 (RSV subtype A)” value was over 25 mg/L.

With B11, the “Neutralization IC50 (RSV subtype A)” value is over 25 mg/L.

As for B12, the “Neutralization IC50 (RSV subtype A)” value was over 25 mg/L.

The target in another assay is RSV F on RSV subtype A virus (RSV-A2) (Respiratory Syncytial Virus, subtype A, …, UniProt P03420 26-574). Put plainly: cell-based or functional assay.
With B1, the “Neutralization - RSV A2 IC50 (pM)” value was found to be 85.8 pM and the “neut IC50 (ug/ml) subtype A (wright)” value was 0.019 µg/mL.

Turning to B2, the “Neutralization - RSV A2 IC50 (pM)” value came out at 122 pM and the “neut IC50 (ug/ml) subtype A (wright)” value was 0.015 µg/mL.

Turning to B3, the “Neutralization - RSV A2 IC50 (pM)” value stood at 23.9 pM and the “neut IC50 (ug/ml) subtype A (wright)” value worked out at 0.006 µg/mL.

Consider B4, for which the “Neutralization - RSV A2 IC50 (pM)” value is 310 pM and the “neut IC50 (ug/ml) subtype A (wright)” value was 0.077 µg/mL.

As for B5, the “Neutralization - RSV A2 IC50 (pM)” value was found to be 133 pM and the “neut IC50 (ug/ml) subtype A (wright)” value came out at 0.006 µg/mL.

Consider B6, for which the “Neutralization - RSV A2 IC50 (pM)” value amounted to 154 pM and the “neut IC50 (ug/ml) subtype A (wright)” value amounted to 0.071 µg/mL.

On to B7, for which the “Neutralization - RSV A2 IC50 (pM)” value is 26.6 pM and the “neut IC50 (ug/ml) subtype A (wright)” value amounted to 0.109 µg/mL.

The target of the next assay is RSV prefusion F (preF), DS-Cav1 stabilized trimer, subtype A (Respiratory Syncytial Virus, subtype A, UniProt P03420 26-513). Put plainly: BLI, apparent IgG KD (Table 9A).
Regarding B1, the Kd stood at 0.35 nM.

With B2, the Kd was found to be 0.34 nM.

For the molecule B3, the Kd turned out to be 0.4 nM.

On to B4, for which the Kd was found to be 0.48 nM.

Take B5: the Kd came to 0.65 nM.

Regarding B6, the Kd was found to be 0.5 nM.

As for B7, the Kd amounted to 0.48 nM.

Another assay has as its target RSV postfusion F (postF), F ΔFP (Respiratory Syncytial Virus, UniProt P03420 26-513). Put plainly: BLI, IgG on anti-human IgG sensor.
Consider B8, for which the binding result is “no binding”.

In the case of B9, the binding result was “no binding”.

As to B10, the binding result is listed as “no binding”.

With B11, the binding result is recorded as “no binding”.

In the case of B12, the binding result is given as “no binding”.

A further assay concerns the target RSV prefusion F (preF), DS-Cav1 (Respiratory Syncytial Virus, UniProt P03420 26-513). Put plainly: BLI, IgG on anti-human IgG sensor, 100 nM antigen, 1:1 fit.
Molecule B8 registered a Kd of 3.33 nM.

In turn, B9 came in with a Kd of 88 nM.

On to B10, for which the Kd was found to be 0.439 nM.

For B11, the Kd amounted to 3.21 nM.

Regarding B12, the Kd was 3.86 nM.
